Experimental data: the supplement of paper PMC9112550, “Optimization of the antimicrobial peptide Bac7 by deep mutational scanning” (BMC Biology, 2022)

System: Escherichia coli TOP10
Experiment: shrunken log2 fold change of peptide-encoding DNA abundance (4.5 h post-induction vs induction); higher = less antimicrobial activity (less host growth inhibition)
Conditions: time post-induction: 4.5 h; library: site-saturation at positions 5, 18, 19, 20
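Further: peptides expressed intracellularly from a pBAD plasmid library in pooled LB shake-flask culture, induced with 0.3% L-arabinose, DNA abundance read by NGS, three biological replicates, DESeq2 with apeglm shrinkage.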

Sequence | shrunken log2 fold change
RRIRIRPPRLPRPRPRPCKWPRP | -0.38
RRIRGRPPRLPRPRPRPNNIPRP | -0.163
RRIRPRPPRLPRPRPRPWIIPRP | -0.919
RRIRIRPPRLPRPRPRPFCQPRP | -0.412
RRIRSRPPRLPRPRPRPEPEPRP | 0.102
RRIRDRPPRLPRPRPRPEWPPRP | 0.209
RRIRPRPPRLPRPRPRPGVRPRP | 0.116
RRIRVRPPRLPRPRPRPQEMPRP | 0.0818
RRIRPRPPRLPRPRPRPMFWPRP | -0.0858
RRIRYRPPRLPRPRPRPQIAPRP | -0.242
RRIRLRPPRLPRPRPRPVFCPRP | 0.14
RRIRTRPPRLPRPRPRPYNGPRP | -0.203
RRIRRRPPRLPRPRPRPTLMPRP | 0.581
RRIRLRPPRLPRPRPRPNEWPRP | -0.227
RRIRGRPPRLPRPRPRPSCYPRP | -0.0977
RRIRLRPPRLPRPRPRPYNNPRP | -1.03
RRIRARPPRLPRPRPRPVDKPRP | 0.363
RRIRNRPPRLPRPRPRPADWPRP | 0.044
RRIRTRPPRLPRPRPRPPRNPRP | 1.27
RRIRQRPPRLPRPRPRPPVHPRP | 0.164
RRIRPRPPRLPRPRPRPAKTPRP | -0.168
RRIRRRPPRLPRPRPRPTRHPRP | 0.783
RRIRKRPPRLPRPRPRPQPYPRP | -0.157
RRIRPRPPRLPRPRPRPFVMPRP | -0.201
RRIRDRPPRLPRPRPRPHLQPRP | 0.157

Sequence | shrunken log2 fold change
RRIRLRPPRLPRPRPRPSKYPRP | -0.578
RRIRNRPPRLPRPRPRPLPRPRP | 0.102
RRIRRRPPRLPRPRPRPPIGPRP | -0.149
RRIRLRPPRLPRPRPRPLHYPRP | -0.00799
RRIRKRPPRLPRPRPRPYMKPRP | -0.134
RRIRLRPPRLPRPRPRPGTLPRP | 0.0174
RRIRRRPPRLPRPRPRPRLAPRP | 0.62
RRIRWRPPRLPRPRPRPVFDPRP | 0.138
RRIRIRPPRLPRPRPRPPLVPRP | 0.0482
RRIRDRPPRLPRPRPRPSTGPRP | -0.313
RRIRHRPPRLPRPRPRPYYKPRP | -0.913
RRIRHRPPRLPRPRPRPKQNPRP | 0.139
RRIRKRPPRLPRPRPRPYQIPRP | -0.000276
RRIRVRPPRLPRPRPRPCLHPRP | -0.947
RRIRKRPPRLPRPRPRPFQEPRP | 0.149
RRIRARPPRLPRPRPRPMSIPRP | -0.118
RRIRHRPPRLPRPRPRPEYMPRP | -0.05
RRIRARPPRLPRPRPRPTPMPRP | 0.528
RRIRYRPPRLPRPRPRPCVHPRP | -0.0274
RRIRFRPPRLPRPRPRPWSRPRP | -0.147
RRIRPRPPRLPRPRPRPYDLPRP | -0.293
RRIRVRPPRLPRPRPRPLPYPRP | -0.587
RRIRFRPPRLPRPRPRPIPKPRP | 0.179
RRIRYRPPRLPRPRPRPFKVPRP | -0.123
RRIRRRPPRLPRPRPRPNHIPRP | -0.502

Sequence | shrunken log2 fold change
RRIRVRPPRLPRPRPRPCAIPRP | -0.379
RRIRYRPPRLPRPRPRPPHCPRP | -0.396
RRIRQRPPRLPRPRPRPGDFPRP | -0.179
RRIRRRPPRLPRPRPRPQCWPRP | 0.557
RRIRTRPPRLPRPRPRPADMPRP | -0.431
RRIRLRPPRLPRPRPRPCFYPRP | -0.504
RRIRLRPPRLPRPRPRPLKMPRP | 1.29
RRIRGRPPRLPRPRPRPVHGPRP | -0.244
RRIRNRPPRLPRPRPRPWKPPRP | 0.0219
RRIRSRPPRLPRPRPRPGSAPRP | 0.231
RRIRNRPPRLPRPRPRPSDPPRP | -0.192
RRIRHRPPRLPRPRPRPTLIPRP | 0.0888
RRIRIRPPRLPRPRPRPDEDPRP | -0.00875
RRIRGRPPRLPRPRPRPELPPRP | 1.33
RRIRHRPPRLPRPRPRPDNVPRP | -0.02
RRIRARPPRLPRPRPRPEGNPRP | 0.295
RRIRMRPPRLPRPRPRPLRIPRP | 1.06
RRIRNRPPRLPRPRPRPNNNPRP | -0.867
RRIRYRPPRLPRPRPRPKMPPRP | -0.206
RRIRKRPPRLPRPRPRPRDPPRP | 1.06
RRIRKRPPRLPRPRPRPVRFPRP | 0.397
RRIRGRPPRLPRPRPRPTINPRP | 0.477
RRIRKRPPRLPRPRPRPDHSPRP | -0.148
RRIRMRPPRLPRPRPRPNKIPRP | 0.0176
RRIRCRPPRLPRPRPRPSSGPRP | -0.011

Sequence | shrunken log2 fold change
RRIRKRPPRLPRPRPRPMMGPRP | -0.0567
RRIRFRPPRLPRPRPRPSYRPRP | -0.783
RRIRLRPPRLPRPRPRPCQQPRP | -0.047
RRIRVRPPRLPRPRPRPQCVPRP | -0.218
RRIRGRPPRLPRPRPRPSSCPRP | 0.316
RRIRLRPPRLPRPRPRPLYTPRP | -0.461
RRIRQRPPRLPRPRPRPRQIPRP | 0.0413
RRIRVRPPRLPRPRPRPKDNPRP | -0.438
RRIRWRPPRLPRPRPRPIYIPRP | -0.889
RRIRQRPPRLPRPRPRPKHLPRP | 0.0736
RRIRFRPPRLPRPRPRPVHSPRP | -0.126
RRIRFRPPRLPRPRPRPFVMPRP | -1.05
RRIRPRPPRLPRPRPRPKKYPRP | -0.555
RRIRTRPPRLPRPRPRPHTAPRP | -0.0446
RRIRNRPPRLPRPRPRPGNPPRP | 0.0273
RRIRDRPPRLPRPRPRPNYRPRP | -0.152
RRIRSRPPRLPRPRPRPSYRPRP | -0.131
RRIRWRPPRLPRPRPRPNCIPRP | -0.0807
RRIRRRPPRLPRPRPRPKAHPRP | 0.515
RRIRERPPRLPRPRPRPLGEPRP | 0.0918
RRIRYRPPRLPRPRPRPWEYPRP | -0.142
RRIRPRPPRLPRPRPRPIDGPRP | 0.023
RRIRRRPPRLPRPRPRPTVFPRP | 0.721
RRIRSRPPRLPRPRPRPNKIPRP | -0.294
RRIRTRPPRLPRPRPRPMHTPRP | 0.0134

Sequence | shrunken log2 fold change
RRIRTRPPRLPRPRPRPFVYPRP | -0.639
RRIRRRPPRLPRPRPRPYNTPRP | -0.436
RRIRRRPPRLPRPRPRPGLNPRP | -0.0395
RRIRVRPPRLPRPRPRPFVDPRP | -0.385
RRIRRRPPRLPRPRPRPENTPRP | -0.0822
RRIRRRPPRLPRPRPRPYWSPRP | -0.353
RRIRHRPPRLPRPRPRPETCPRP | -0.0251
RRIRFRPPRLPRPRPRPHNMPRP | -0.896
RRIRYRPPRLPRPRPRPVIMPRP | -0.222
RRIRCRPPRLPRPRPRPCLAPRP | -0.257
RRIRGRPPRLPRPRPRPGFRPRP | 0.399
RRIRMRPPRLPRPRPRPQMCPRP | -0.239
RRIRPRPPRLPRPRPRPQRCPRP | -0.0388
RRIRMRPPRLPRPRPRPVKLPRP | -0.0873
RRIRWRPPRLPRPRPRPAPTPRP | 0.695
RRIRGRPPRLPRPRPRPYPDPRP | 0.201
RRIRYRPPRLPRPRPRPFILPRP | -1.19
RRIRDRPPRLPRPRPRPAAVPRP | 0.609
RRIRARPPRLPRPRPRPAIHPRP | -0.223
RRIRPRPPRLPRPRPRPQKPPRP | 0.163
RRIRERPPRLPRPRPRPVCIPRP | -0.541
RRIRNRPPRLPRPRPRPGCIPRP | -0.173
RRIRWRPPRLPRPRPRPKIGPRP | -0.0273
RRIRLRPPRLPRPRPRPPRKPRP | 0.659
RRIRARPPRLPRPRPRPFKIPRP | -0.0575

Sequence | shrunken log2 fold change
RRIRTRPPRLPRPRPRPVSEPRP | 0.135
RRIRCRPPRLPRPRPRPVNSPRP | -0.418
RRIRARPPRLPRPRPRPQPKPRP | 0.465
RRIRARPPRLPRPRPRPQYSPRP | -0.0321
RRIRWRPPRLPRPRPRPHIIPRP | -0.441
RRIRMRPPRLPRPRPRPWEEPRP | 0.317
RRIRGRPPRLPRPRPRPCYHPRP | -0.345
RRIRGRPPRLPRPRPRPPCTPRP | 0.76
RRIRVRPPRLPRPRPRPCVAPRP | 0.159
RRIRTRPPRLPRPRPRPKCIPRP | -0.292
RRIRSRPPRLPRPRPRPQMQPRP | 0.00783
RRIRMRPPRLPRPRPRPRLSPRP | 0.494
RRIRCRPPRLPRPRPRPQNEPRP | -0.389
RRIRGRPPRLPRPRPRPRKAPRP | 0.693
RRIRDRPPRLPRPRPRPLLLPRP | 0.468
RRIRKRPPRLPRPRPRPCGEPRP | 0.166
RRIRIRPPRLPRPRPRPYKDPRP | -0.317
RRIRGRPPRLPRPRPRPNMMPRP | 0.0511
RRIRRRPPRLPRPRPRPMAMPRP | -0.011
RRIRERPPRLPRPRPRPDKMPRP | -0.0703
RRIRFRPPRLPRPRPRPDLYPRP | -0.053
RRIRDRPPRLPRPRPRPGNIPRP | -0.0319
RRIRTRPPRLPRPRPRPPDLPRP | 0.243
RRIRPRPPRLPRPRPRPGGYPRP | 0.25
RRIRSRPPRLPRPRPRPHWTPRP | -0.0566
